Target: human Epidermal Growth Factor Receptor (huEGFR) over-expressed in mcl-1-/- mouse embryonic fibroblasts (human, UniProt P00533 25-1210)
Experiment: cell-based or functional assay

B1: AbA-CZ (antibody, V domains shown)
VH: EVQLQESGPGLVKPSQTLSLTCTVSGYSISRDFAWNWIRQPPGKGLEWMGYISYNGNTRYQPSLKSRITISRDTSKNQFFLKLNSVTAADTATYYCVTASRGFPYWGQGTLVTVSS
VL: DIQMTQSPSSMSVSVGDRVTITCHSSQDINSNIGWLQQKPGKSFKGLIYHGTNLDDGVPSRFSGSGSGTDYTLTISSLQPEDFATYYCVQYAQFPWTFGGGTKLEIKR
modifications: synthon CZ on reduced interchain Cys
  huEGFR^+ mcl-1^-/- MEF EC50: 0.3 nM

B2: AbA-SE (antibody, V domains shown)
VH: EVQLQESGPGLVKPSQTLSLTCTVSGYSISRDFAWNWIRQPPGKGLEWMGYISYNGNTRYQPSLKSRITISRDTSKNQFFLKLNSVTAADTATYYCVTASRGFPYWGQGTLVTVSS
VL: DIQMTQSPSSMSVSVGDRVTITCHSSQDINSNIGWLQQKPGKSFKGLIYHGTNLDDGVPSRFSGSGSGTDYTLTISSLQPEDFATYYCVQYAQFPWTFGGGTKLEIKR
modifications: synthon SE on reduced interchain Cys
  huEGFR^+ mcl-1^-/- MEF EC50: 105 nM

B3: AbA-SR (antibody, V domains shown)
VH: EVQLQESGPGLVKPSQTLSLTCTVSGYSISRDFAWNWIRQPPGKGLEWMGYISYNGNTRYQPSLKSRITISRDTSKNQFFLKLNSVTAADTATYYCVTASRGFPYWGQGTLVTVSS
VL: DIQMTQSPSSMSVSVGDRVTITCHSSQDINSNIGWLQQKPGKSFKGLIYHGTNLDDGVPSRFSGSGSGTDYTLTISSLQPEDFATYYCVQYAQFPWTFGGGTKLEIKR
modifications: synthon SR on reduced interchain Cys
  huEGFR^+ mcl-1^-/- MEF EC50: 5.9 nM

B4: AbA-YY (antibody, V domains shown)
VH: EVQLQESGPGLVKPSQTLSLTCTVSGYSISRDFAWNWIRQPPGKGLEWMGYISYNGNTRYQPSLKSRITISRDTSKNQFFLKLNSVTAADTATYYCVTASRGFPYWGQGTLVTVSS
VL: DIQMTQSPSSMSVSVGDRVTITCHSSQDINSNIGWLQQKPGKSFKGLIYHGTNLDDGVPSRFSGSGSGTDYTLTISSLQPEDFATYYCVQYAQFPWTFGGGTKLEIKR
modifications: synthon YY on reduced interchain Cys
  huEGFR^+ mcl-1^-/- MEF EC50: 460 nM

B5: AbA-XW (antibody, V domains shown)
VH: EVQLQESGPGLVKPSQTLSLTCTVSGYSISRDFAWNWIRQPPGKGLEWMGYISYNGNTRYQPSLKSRITISRDTSKNQFFLKLNSVTAADTATYYCVTASRGFPYWGQGTLVTVSS
VL: DIQMTQSPSSMSVSVGDRVTITCHSSQDINSNIGWLQQKPGKSFKGLIYHGTNLDDGVPSRFSGSGSGTDYTLTISSLQPEDFATYYCVQYAQFPWTFGGGTKLEIKR
modifications: synthon XW on reduced interchain Cys
  huEGFR^+ mcl-1^-/- MEF EC50: 32 nM

B6: AbA-KZ (antibody, V domains shown)
VH: EVQLQESGPGLVKPSQTLSLTCTVSGYSISRDFAWNWIRQPPGKGLEWMGYISYNGNTRYQPSLKSRITISRDTSKNQFFLKLNSVTAADTATYYCVTASRGFPYWGQGTLVTVSS
VL: DIQMTQSPSSMSVSVGDRVTITCHSSQDINSNIGWLQQKPGKSFKGLIYHGTNLDDGVPSRFSGSGSGTDYTLTISSLQPEDFATYYCVQYAQFPWTFGGGTKLEIKR
modifications: synthon KZ on reduced interchain Cys
  huEGFR^+ mcl-1^-/- MEF EC50: 152 nM

B7: AbA-YG (antibody, V domains shown)
VH: EVQLQESGPGLVKPSQTLSLTCTVSGYSISRDFAWNWIRQPPGKGLEWMGYISYNGNTRYQPSLKSRITISRDTSKNQFFLKLNSVTAADTATYYCVTASRGFPYWGQGTLVTVSS
VL: DIQMTQSPSSMSVSVGDRVTITCHSSQDINSNIGWLQQKPGKSFKGLIYHGTNLDDGVPSRFSGSGSGTDYTLTISSLQPEDFATYYCVQYAQFPWTFGGGTKLEIKR
modifications: synthon YG on reduced interchain Cys
  huEGFR^+ mcl-1^-/- MEF EC50: 6.4 nM

B8: AbB-ZT (antibody, V domains shown)
VH: EVQLQESGPGLVKPSQTLSLTCTVSGYSISNDFAWNWIRQPPGKGLEWMGYISYKGNTRYQPSLKSRITISRDTSKNQFFLKLNSVTAADTATYYCVTASRGFPWWGQGTLVTVSS
VL: DIQMTQSPSSMSVSVGDRVTITCHSSQDINSNIGWLQQKPGKSFKGLIYHGTNLDDGVPSRFSGSGSGTDYTLTISSLQPEDFATYYCVQYAQFPWTFGGGTKLEIKR
modifications: synthon ZT on reduced interchain Cys
  huEGFR^+ mcl-1^-/- MEF EC50: 8.9 nM
